Reference: article PMC11868391, “The p3 peptides (Aβ_(17-40/42)) rapidly form amyloid fibrils that cross-seed with full-length Aβ” (Nature Communications, 2025)

B1: p3_(40) Peptide Aβ_(17-40) (peptide)
peptide: LVFFAEDVGSNKGAIIGLMVGGVV
notes: numbers count on: the Aβ peptide; Used as SEC-purified monomer, as lag-phase oligomer preparation and as fibril seeds; source: synthetic peptide, bought: EZBiolab Inc; solubilized at pH 10, monomer isolated by SEC
B2: p3_(42) Peptide Aβ_(17-42) (peptide)
peptide: LVFFAEDVGSNKGAIIGLMVGGVVIA
notes: as for B1

What was measured:
[1] = molecular target: Full-length Aβ40; assay: cell-based or functional assay
[2] = molecular target: Full-length Aβ42; assay: cell-based or functional assay

| Binder | t50 of ThT fibril growth of Aβ40 monomer with p3_(40) fibril seeds (10% w/w), as a percentage relative to self-seeding [1] | t50 of ThT fibril growth of Aβ42 monomer with p3_(42) fibril seeds (10% w/w), as a percentage relative to self-seeding [2] |
| --- | --- | --- |
| B1 | 70 % relative to self-seeding t50 |  |
| B2 |  | > 70 % relative to self-seeding t50 |
